Experimental findings from PMC2119692 are described below.

Experiment [1] has as its target calmodulin targets in the leading lamellae (region of transverse fibers) of Swiss 3T3 fibroblasts during wound healing. Briefly: steady state fluorescence anisotropy imaging microscopy. On the technique in general: Polarisation of emitted light reports the rotation of a fluorescent probe.
Experiment [2] deals with target proteins of calmodulin in serum-deprived and serum-stimulated Swiss 3T3 fibroblasts. The experiment is described as above.

A value given as a limit tells only on which side of the number the result lay.

Turning to “FITC-calmodulin (from UniProt P62157 1-149) (natural protein)”, the maximum fraction bound (fB) in experiment [1] turned out to be 50%; in experiment [2], 95%. Besides, the fraction bound (fB) in experiment [2] was under 10%.
